The numbers were not newly measured in patent US20170240926A1, “METHODS FOR PRENYLATION OF PEPTIDES AND THEIR USE IN OVER-PRODUCTION OF FARNESENE AND GERANYLGERANYL TERPENES” (University of North Texas, priority 2016, published 2017), which cites them from elsewhere.

This data set deals with FTase (Rattus norvegicus, UniProt Q02293+Q04631). The conditions noted are these: 10 μM FPP, 0.4-10 μM dansylated peptide, 25-300 nM FTase, 50 mM HEPPSO pH 7.8, 25° C.

Consider “CFLS: peptide of the form dansyl-TKCxxx with C-terminal CFLS; SCAMPER”, for which the kfarn is 0.46 ± 0.05 s⁻¹.
